Assay results: IntAct's records for PubMed 21600204

B1: OriC-binding nucleoid-associated protein (Escherichia coli (strain K12)), P64467 (parent)
chain: MTVQDYLLKFRKISSLESLEKLYDHLNYTLTDDQELINMYRAADHRRAELVSGGRLFDLGQVPKSVWHYVQ
partner: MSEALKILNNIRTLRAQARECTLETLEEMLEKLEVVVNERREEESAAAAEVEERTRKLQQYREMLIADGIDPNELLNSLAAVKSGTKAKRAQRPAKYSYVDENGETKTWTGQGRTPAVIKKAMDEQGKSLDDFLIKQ
B2: Hemolysin expression-modulating protein Hha (Escherichia coli (strain K12)), P0ACE3 (parent)
chain: MSEKPLTKTDYLMRLRRCQTIDTLERVIEKNKYELSDNELAVFYSAADHRLAELTMNKLYDKIPSSVWKFIR
partner: B1 partner

Variants of: B1
Details: with hns_ecoli hns

Variant | effect of a mutation on the interaction
MTVQDYLLKFRKISSLESLEKLYDHLNYTLTDDQELINMYRAANHRRAELVSGGRLFDLGQVPKSVWHYVQ | disrupting interaction

Variants of: B2
Details: with hns_ecoli hns

Variant | effect of a mutation on the interaction
MSEKPLTKTDYLMRLRRCQTIDTLERVIEKNKYELSDNELAVFYSAANHRLAELTMNKLYDKIPSSVWKFIR | disrupting interaction

Variants of: B2
Details: with hns_ecoli hns
Remark: another data set of the same source

Variant | effect of a mutation on the interaction
MSEKPLTKTDYLMRLRRCQTIDTLQRVIEKNKYELSDNELAVFYSAADHRLAELTMNKLYDKIPSSVWKFIR | decreasing interaction
